Target: T1, FtsY NG domain (SRP receptor FtsY, residues 196-498) (E. coli, UniProt P10121 196-497)
T1 sequence (looked up): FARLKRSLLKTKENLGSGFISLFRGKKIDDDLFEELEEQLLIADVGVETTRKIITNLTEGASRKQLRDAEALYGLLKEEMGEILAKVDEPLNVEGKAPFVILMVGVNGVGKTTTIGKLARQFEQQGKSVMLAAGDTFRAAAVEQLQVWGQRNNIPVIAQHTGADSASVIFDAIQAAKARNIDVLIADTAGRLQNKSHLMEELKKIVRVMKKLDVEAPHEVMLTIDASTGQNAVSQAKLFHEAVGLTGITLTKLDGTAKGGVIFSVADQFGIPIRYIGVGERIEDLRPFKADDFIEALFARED
Assay: SEC

B1: Ffh NG domain (signal recognition particle protein Ffh, residues 1-298) (domain or fragment, E. coli, UniProt P0AGD7 1-298, looked up)
chain: MFDNLTDRLSRTLRNISGRGRLTEDNVKDTLREVRMALLEADVALPVVREFINRVKEKAVGHEVNKSLTPGQEFVKIVRNELVAAMGEENQTLNLAAQPPAVVLMAGLQGAGKTTSVGKLGKFLREKHKKKVLVVSADVYRPAAIKQLETLAEQVGVDFFPSDVGQKPVDIVNAALKEAKLKFYDVLLVDTAGRLHVDEAMMDEIKQVHASINPVETLFVVDAMTGQDAANTAKAFNEALPLTGVVLTKVDGDARGGAALSIRHITGKPIKFLGVGEKTEALEPFHPDRIASRILGMG
binding result: binds
